Our source for the mean NFRET for all pixels, mean NFRET of first Gaussian component and mean NFRET of second Gaussian component values is US20100209938A1.

Experiment [1] deals with α4YFP nAChR subunit (mouse) (UniProt O70174). Put plainly: pixel-by-pixel sensitized emission FRET (NFRET), whole-cell ROI, N2a cells.
Experiment [2] shares this target. Briefly: pixel-by-pixel sensitized emission FRET, Gaussian fit of the NFRET distribution, N2a cells.

Sequence of β2CFP nAChR subunit (Q9ERK7 26-501): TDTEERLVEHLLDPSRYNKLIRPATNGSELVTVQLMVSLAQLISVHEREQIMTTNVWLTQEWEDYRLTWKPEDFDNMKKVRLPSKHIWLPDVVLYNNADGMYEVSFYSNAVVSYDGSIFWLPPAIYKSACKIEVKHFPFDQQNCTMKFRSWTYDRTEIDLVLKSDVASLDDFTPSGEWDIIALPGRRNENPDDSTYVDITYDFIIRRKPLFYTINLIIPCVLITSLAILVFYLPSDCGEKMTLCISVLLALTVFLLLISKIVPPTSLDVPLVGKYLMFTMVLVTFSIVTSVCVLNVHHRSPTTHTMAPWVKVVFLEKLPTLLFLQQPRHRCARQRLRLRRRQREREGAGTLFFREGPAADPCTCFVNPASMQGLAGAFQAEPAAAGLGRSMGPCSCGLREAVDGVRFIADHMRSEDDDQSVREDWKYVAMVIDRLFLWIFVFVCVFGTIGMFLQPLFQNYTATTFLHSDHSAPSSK
Sequence of α4YFP nAChR subunit (mouse) (O70174 31-629): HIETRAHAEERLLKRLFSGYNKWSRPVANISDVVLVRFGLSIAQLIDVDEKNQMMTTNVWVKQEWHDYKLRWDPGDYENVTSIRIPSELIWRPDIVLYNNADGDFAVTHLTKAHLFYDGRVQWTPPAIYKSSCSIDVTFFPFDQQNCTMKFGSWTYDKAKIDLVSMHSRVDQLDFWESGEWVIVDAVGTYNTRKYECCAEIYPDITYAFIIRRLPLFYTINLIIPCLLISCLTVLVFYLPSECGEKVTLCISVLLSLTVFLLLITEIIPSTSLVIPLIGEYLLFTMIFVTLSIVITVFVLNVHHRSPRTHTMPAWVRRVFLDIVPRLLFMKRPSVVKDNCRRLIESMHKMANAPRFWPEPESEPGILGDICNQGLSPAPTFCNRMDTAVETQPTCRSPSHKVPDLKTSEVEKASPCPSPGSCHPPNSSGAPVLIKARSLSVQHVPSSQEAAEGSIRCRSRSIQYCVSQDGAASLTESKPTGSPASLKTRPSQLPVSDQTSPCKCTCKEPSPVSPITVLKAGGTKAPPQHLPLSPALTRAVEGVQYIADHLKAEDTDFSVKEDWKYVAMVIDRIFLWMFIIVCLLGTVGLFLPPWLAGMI

As to “β2CFP nAChR subunit (from UniProt Q9ERK7 26-501) (receptor)”, the mean NFRET for all pixels in experiment [1] amounted to 0.2. Besides, in experiment [2], the mean NFRET of first Gaussian component came out at 0.19 and the mean NFRET of second Gaussian component was 0.28.
